Experimental data from US20260098102A1 (NATIONAL UNIVERSITY CORPORATION KOBE UNIVERSITY, published 2026).

Columns and labels:
[1] = target: T1, human SIRPB (human, UniProt O00241 30-398); assay: flow cytometry on CHO-K1 cells expressing FLAG-tagged human SIRPB; PE anti-human IgG; MFI standardized to secondary antibody alone
T1 construct: whole, on cells; FLAG-tagged (pFLAG V5-DEST), on CHO-K1 cells; also called SIRPβ1; signal regulatory protein β1
Method: SIRPβ1 (signal regulatory protein β1: the amino acid sequence thereof is published as RefSeq accession number NP_006056) and SIRPγ (signal regulatory protein γ: the amino acid sequence thereof is published as RefSeq accession number NP_061026) are molecules belonging to the SIRPA family. In the present invention, “SIRPα” may be referred to as “SIRPA,” “SIRPβ1” may be referred to as […] and “SIRPγ” may be referred to as “SIRPG.” CHO-K1 cells were prepared in a 10% FBS-containing Ham's F-12K medium at 3.3×10⁵ cells/mL and cultured overnight at 37° C. under a 5% CO₂ condition. pFLAG V5-DEST-human SIRPβ, pFLAG V5-DEST-human SIRPG, or pFLAG V5-DEST was introduced into the cells using Lipofectamine LTX (Invitrogen), and cells were cultured in a 10% FBS-containing Ham's F-12K medium at 37° C. under a 5% CO₂ condition for 24 hours. The obtained introduced cells were collected and seeded on a 96-well plate. After the culture supernatant was removed, 100 μL per well of various anti-human SIRPA antibodies or various control human IgG was added to each of various gene introduced cells at a final concentration of 0 to 10,000 ng/mL, and the mixture was allowed to stand at 4° C. for 25 minutes. After the mixture was centrifuged, the supernatant was removed, and cells were washed twice with 5% FBS-containing PBS. After the mixture was centrifuged, the supernatant was removed, 50 μL per well of a 1/400 diluted solution of PE Mouse anti-Human IgG antibody (BioLegend) was added, and the mixture was allowed to stand at 4° C. for 25 minutes. After the mixture was centrifuged, the supernatant was removed, and cells were washed twice with 5% FBS-containing PBS.
After the mixture was centrifuged, and the supernatant was removed, cells were suspended in 100 μL per well of 1× BD Stabilizing Fixative (Becton Dickinson), and the cell count was measured by flow cytometry (FACS Canto II: Becton Dickinson). For data analysis, FlowJo (TreeStar) was used. Cells were characterized by detecting forward scattered (FSC) light and side-scattered (SSC) light, and then the mean fluorescence intensity of PE was calculated. Binding of various antibodies to the family molecules was calculated by standardizing the fluorescence intensity using the mean fluorescence intensity of a sample in which the secondary antibody alone was allowed to react.

[2] = target: T2, human SIRPA_V1 protein (human, UniProt P78324 31-504); assay: blocking cell-based ELISA: peroxidase-labeled CD47-Fc (1 µg/mL) on 293α cells expressing SIRPA_V1
T2 construct: Expressed on 293α cells from pcDNA3.2 V5-DEST or pFLAG V5-DEST (FLAG-tagged) vectors; also called human SIRPA Variant 1; hSIRPA V1
Method: After the culture supernatant of the human SIRPA_V1 or V2 expression vector-introduced 293 cells prepared in Example 9)-1 was removed, 50 μL per well of various anti-SIRPA antibodies or various control Human IgG diluted with 5% FBS-containing PBS to a final concentration of 0 to 10,000 ng/ml was added to each of pcDNA3.2 V5-DEST-SIRPA_V1 or V2-introduced 293α cells, immediately followed by addition of 50 µL per well of peroxidase-labeled CD47-Fc prepared with 5% FBS-containing PBS at 1 μg/mL, and the mixture was allowed to stand at 4° C. for one hour. Thereafter, the SIRPA-CD47 binding inhibitory activity was evaluated in the same manner as in 1)-6-3.

[3] = target: T2, human SIRPA_V1 protein; assay: cell-based ELISA on 293α cells expressing FLAG-tagged SIRPA_V1; Abs 490 normalized to FLAG tag
Method: (§1) The 293α cells [described in Example 1)-6] were prepared in a 10% FBS-containing DMEM medium to 5×10⁵ cells/mL. pFLAG V5-DEST-SIRPA_V1, pFLAG V5-DEST-SIRPA_V2, or pFLAG V5-DEST was introduced into the cells using Lipofectamine LTX (Invitrogen), followed by addition of 100 μL per well to a 96-well plate (Corning Incorporated), and cells were cultured overnight in the 10% FBS-containing DMEM medium at 37° C. under a 5% CO₂ condition. The obtained introduced cells were used for cell-based ELISA in a state that they adhered to each other. After the culture supernatant was removed, 50 μL per well of the cD13 (IgG2 and IgG4pf), cF44 (IgG1, IgG2, IgG4p, and IgG4pf), and cF63 (IgG2 and IgG4pf) antibodies prepared in Examples 3 and 4 were added to each of pFLAG V5-DEST-SIRPA_V1, pFLAG V5-DEST-SIRPA_V2, or pFLAG V5-DEST-introduced cells at final concentrations of 0 to 10,000 ng/mL, and the mixture was allowed to stand at 4° C. for one hour. Further, 50 μL per well of anti-FLAG M2 antibody (SIGMA) diluted with 5% FBS-containing PBS to a final concentration of 10,000 ng/mL was added to a well for detecting expression of each SIRPA construct, and the mixture was allowed to stand at 4° C. for one hour. The cells in the well were washed once with 5% FBS-containing PBS, followed by addition of Peroxidase AffiniPure F(ab′)₂ Fragment Goat Anti-Human IgG, Fcγ Fragment Specific (Jackson ImmunoResearch) diluted 1000-fold with 5% FBS-containing PBS, and the mixture was allowed to stand at 4° C. for one hour. The cells in the well were washed five times with 5% FBS-containing PBS, followed by addition of 100 μL per well of an OPD coloration solution [o-phenylenediamine dihydrochloride (Wako Pure Chemical Industries, Ltd.) and H₂O₂ were dissolved in an OPD solution (0.05 M trisodium citrate, 0.1 M disodium hydrogen phosphate dodecahydrate, pH 4.5) at 0.4 mg/mL and 0.6% (v/v), respectively]. A coloration reaction was performed with stirring occasionally, 100 μL per well of 1 M HCl was added to terminate the coloration reaction, and then absorbance at 490 nm was measured with a plate reader ARVO (PerkinElmer Inc.). Binding of the human chimeric anti-human SIRPA antibodies to each construct was standardized by expression of the FLAG tag.

[4] = target: T3, human SIRPA_V2 protein (human, UniProt P78324 31-504); assay: cell-based ELISA on 293α cells expressing FLAG-tagged SIRPA_V2; Abs 490 normalized to FLAG tag
T3 construct: Expressed on 293α cells from pcDNA3.2 V5-DEST or pFLAG V5-DEST (FLAG-tagged) vectors; also called human SIRPA Variant 2; ECD variant (full-length, amino acids 1 to 504)
Method: as §1

T2 sequence (P78324 31-504 limits assumed): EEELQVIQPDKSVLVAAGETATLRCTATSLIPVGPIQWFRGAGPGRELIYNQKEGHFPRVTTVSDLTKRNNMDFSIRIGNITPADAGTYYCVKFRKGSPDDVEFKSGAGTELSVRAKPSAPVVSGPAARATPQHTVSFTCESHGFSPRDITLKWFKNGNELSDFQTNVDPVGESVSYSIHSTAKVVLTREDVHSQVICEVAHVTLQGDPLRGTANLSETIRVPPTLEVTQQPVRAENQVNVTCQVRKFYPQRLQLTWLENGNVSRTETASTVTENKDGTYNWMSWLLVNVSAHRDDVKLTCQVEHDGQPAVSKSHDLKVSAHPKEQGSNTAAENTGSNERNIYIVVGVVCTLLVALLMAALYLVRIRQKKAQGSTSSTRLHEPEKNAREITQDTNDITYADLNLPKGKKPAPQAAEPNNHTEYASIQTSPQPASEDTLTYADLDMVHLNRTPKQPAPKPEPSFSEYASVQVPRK
T1 sequence (O00241 30-398): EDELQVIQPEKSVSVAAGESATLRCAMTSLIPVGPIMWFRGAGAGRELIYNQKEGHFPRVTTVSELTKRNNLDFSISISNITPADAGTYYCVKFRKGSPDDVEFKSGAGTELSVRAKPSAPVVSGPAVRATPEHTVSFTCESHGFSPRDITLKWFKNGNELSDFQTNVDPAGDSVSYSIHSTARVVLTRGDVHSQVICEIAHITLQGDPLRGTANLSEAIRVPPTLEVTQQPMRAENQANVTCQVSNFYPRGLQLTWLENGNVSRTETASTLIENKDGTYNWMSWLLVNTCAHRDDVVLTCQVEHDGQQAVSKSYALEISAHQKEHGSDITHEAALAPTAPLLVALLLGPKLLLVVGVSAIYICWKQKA
T3 sequence (P78324 other isoform, or with tags, fused parts or gaps limits assumed): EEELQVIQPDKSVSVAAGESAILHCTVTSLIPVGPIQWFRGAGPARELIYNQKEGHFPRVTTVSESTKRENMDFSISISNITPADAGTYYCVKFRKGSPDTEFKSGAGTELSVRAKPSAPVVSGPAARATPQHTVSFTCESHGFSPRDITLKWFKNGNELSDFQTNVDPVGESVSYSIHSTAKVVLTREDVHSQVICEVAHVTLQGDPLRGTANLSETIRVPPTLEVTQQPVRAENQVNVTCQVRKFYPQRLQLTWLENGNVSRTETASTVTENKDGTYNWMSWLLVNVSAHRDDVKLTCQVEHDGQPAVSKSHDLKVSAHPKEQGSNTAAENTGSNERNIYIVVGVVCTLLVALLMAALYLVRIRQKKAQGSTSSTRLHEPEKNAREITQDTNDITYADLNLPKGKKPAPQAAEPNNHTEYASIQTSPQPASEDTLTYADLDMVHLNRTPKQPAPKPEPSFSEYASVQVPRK

EC50 (read off the curve) [1] | IC50 [2] | EC50 (read off the curve) [3] | EC50 (read off the curve) [4] | Binder
~0.03 µg/mL | 1.58 µg/mL | – | – | humanized anti-SIRPA antibody hD13_H1L3 (antibody, human IgG4 S228P, kappa, F234A L235A, V domains shown, hH1 heavy chain (IgG4proFALA) and hL3 kappa light chain; also called hD13_HIL3; HIL3 antibody) VH: QVQLVESGGGVVQPGRSLRLSCAASGFTFSDYGMIWVRQAPGKGLEWVASISSSSSYIYYADSVKGRFTISRDNSKNRLYLQMNSLRAEDTAVYYCARRYYGFNYPFDYWGQGTMVTVSS VL: DTQLTQSPSSLSASVGQRVTITCGASKSVRTYMHWYQQKPGKQPKLLIYSASNLEAGVPSRFSGSGSGTDFTLTISSLQPEDFATYYCQQSNEPPYTFGQGTKLEIKR
– | – | ~0.08 µg/mL | ~0.05 µg/mL | human chimeric anti-SIRPA antibody cD13 (antibody, human IgG4 S228P, kappa, F234A L235A, V domains shown, Human IgG4proFALA heavy chain, human kappa light chain; also called cD13 (IgG4pf); human chimeric antibody D13) VH: EVQLVESGGGLVQPGRSLKLSCLASGFTFSDYGMIWVRQAPGKGLEWVASISSSSSYIYYADTVKGRFTISRENAKNTLFLHMTSLRSEDTALYYCARRYYGFNYPFDYWGQGVMVTVSS VL: DTVLTQSPALAVSLGQRVTISCGASKSVRTYMHWYQQKSGQQPKLLIYSASNLEAGVPSRFSGSGSGTDFTLTIDPVEADDIANYYCQQSNEPPYTFGAGTKLELKR
